Assay: soluble on expression in E. coli; label from the status in PepcDB or PDB records

Sequence | soluble on expression in E. coli
MKGGCVSQWKAAAGFLFCVMVFASAERPVFTNHFLVELHKGGEDKARQVAAEHGFGVRKLEHHHHHH | not soluble
SRRLVHDLLPPEVCSLLNPAAIYANNEISLRDVEVYGFDYDYTLAQYADALHPEIFSTARDILIEHYKSLLMKIDAFHYVQLGTAYRGLQPVPDEEVIELYGGTQHIPLYQMSGFYGKGPSIKQFMDIFSLPEMALLSCVVDYFLGHSLEFDQAHLYKDVTDAIRDVHVKGLMYQWIEQDMEKYILRGDETFAVLSRLVAHGKQLFLITNSPFSFVDKGMRHMVGPDWRQLFDVVIVQADKPSFFTDRRKPFRKLDEKGSLQWDRITRLEKGKIYRQGNLFDFLRLTEWRGPRVLYFGDHLYSDLADLMLRHGWRTGAIIPELEREIRIINTEQYMHSLTWQQALTGLLERMQTYQDAESRQVLAAWMKERQELRCITKALFNAQFGSIFRTFHNPTYFSRRLVRFSDLYMASLSCLLNYRVDFTFYPRRTPLQHEAPLWMDQLCTGCMKTPFLGDMAHIR | not soluble
MSLKVKSIKAITLSMPFSHGGKKVIFHGKEWKSLEFNLIRLETDKGIVGWGEAFGFSSWKAVRVAIEEMVAPMIIGKDMSNIPELLLNLQKSLHLFGRYGITMFAISGVEIALWDAFGKEKNKPVHELLGKKNNDIFKAYSSLFRYGDPKIIEQKCKQSLDDGYRAIKLHEIENNCIEAGRKGTGDLPMMLDTNCPWTYEQTLAKKDFLKSMNLTWLEEPIYPPEDYQTLAKLNKELGIPLACGENACTEYEFKSMIDHKAVSFVQPSVIKVGGIYEMFKIINIAEDKNISVMPHTAYFGPGFLATLQLAALMKKETYIERFYLDIDEEFYPNFKKALNGKYNLPKGPGLGIDLDYKRLSKYEIEGHHHHHH | soluble
MGSDKIHHHHHHMQLEVMEHYGIIKYFRDADYFETEHQRRIFNQLKKVIPEGQLIALSGVVGSGKTTTLSRLQDLLAKEKKVIVAKSLSVEKTKTNLGTLITALFYDVSGDKDYRVPKLGEKRERELRDLIQDVKKPVVLLVDEAHDLHHRTLTGLKRLMEVIRDGGGKLSILLAGHPKLKNDLKGPTMEEVGYRTIVVSLDAMQGNLREYVYWLLDNCTDDKTKPTDVIEEQAIDYLVERLTTPLQIEQHLSLALEEGFNVGVKPITVDVLDLTLSRRINDIEPRLIRHGYSEKVLVDQFHYKPAELRKFFKGELDANRVKEITQDLREAGLPI | not soluble
MNDEQQNSNQSENTKKPFFQSLFGRFFQGELKNREELVEVIRDSEQNDLIDQNTREMIEGVMEIAELRVRDIMIPRSQIIFIEDQQDLNTCLNTIIESAHSRFPVIADADDRDNIVGILHAKDLLKFLREDAEVFDLSSLLRPVVIVPESKRVDRMLKDFRSERFHMAIVVDEFGAVSGLVTIEDILEQIVGDIEDEFDEEEIADIRQLSRHTYAVRALTDIDDFNAQFNTDFDDEEVDTIGGLIMQTFGYLPKRGEEIILKNLQFKVTSADSRRLIQLRVTVPDEHLAEMNNVDEKSELEHHHHHH | not soluble
MSLGADRSAPMTARIDQLLLERLKSAGVEPAPAADDGEFLRRAYLDLSGTIPPVAITRDYLADSSPAKRRQLIERLLASPAFASHLASTWREIILKPTDDFQQLQNQFALQAWLREQFSENARYDRIVEQFITASSEQDGPVYFYDALDLKPEQLAAETSRIFLGLHIQCAECHDHPFDDWKQRDFWGYAAFFARVAKRDSAMGRISLVDQEMGEVKIPESEETVAPLYPGGSAPSDRFGGTRRQKLAVWMVARDNPYTARRAVNWAWAHLFGRGLVEPVDDLSPLNAPSHPALMEELTQYFIDSGYDLRQLLRTLAMTDAYARSSQNVDGQRPELFANMAIKSLSPEQLYDAILRLGLIRETVGDLSSQAPQPFDRSQQRLQFVARMRTVSLDRTDFETGAPQALALMNGPPVSLATAPETSGFLKSLEAPFFSDEQRVELIALAAYSRQPTAEERQRFSEYLATASPNEKKQALGDLLWAVAASAEFMLNEGHHHHHH | not soluble
MGSDKIHHHHHHMSLFNIFDVSGSGMAAQSIRLNTTASNIANADSVSSSVDKTYRARHPIFEAELNKAHDQQNGTKGVQVRAIVESDKPLLKEYSPSHPMADGDGFIYKPNVNVMEEMADMISASRSYQMNVQVADATKTMLQQTLRMGK | not soluble
MGSDKIHHHHHHMTNAFKGIPEELLKPHASPCVSIFMPTSRTFPDNTQDPVRFKNLVSRAEADGIAFSTKREMAPLIERLRLLQDDASFWNHTLDGLAVFISPDYFRIFRLQQSVLEQAHVTDAFYIRPLIRIYQIVERFQVLALTRSEVKLYEGTRDHLDEIELAPEVPKTMTDALGTEITPPHMTIASYGGTGTAMRHGHSSRKDEEALDNERFFRAVDQGINEYHSSSSGLPLVLVALPEHQGLFRSISRNQRLVAEGIEIDPAALGLEAMRQKAWQVMEPYRERKIDQMIARFREAEGGKLGSDNPYAIAIAAVAGNVSHLLLDGQKFWPGQIDPVSGDILLDEASQASGRDVFEELGAAVLARGGEVLVLPSERMPSASGVAAIFRHD | not soluble
MGKKKSDTASGGAIPEGDNEKGKKIFKQRCEQCHVVNSLQTKTGPTLNGVIGRQSGQVAGFDYSAANKNKGVVWDRQTLFDYLADPKKYIPGTKMVFAGLKKADERADLIKFIEVEAAKKPSA | not soluble
MNFQKLLKEAQKAQKKAAEVQERLERMTVVGSAQGLVEVEANGHGKILALRLKPEALKAFQDDPEGLEDLLLVAIQDAQTKAHELSEKEMAKELGGVGQMLGKLF | soluble
MAHHHHHHMTESTHLIDAGCFISQMNELVLIDPLYMNYVITNYFNYLINDKNELLPKESLNGVYFENAKPGLWSSFAIKEKNIFLPNSQKMEQNMIDLGIDKNYGNEIITSFACFNNTEFMHEYLTVEKLNELKWEKFESNINCIGNHNNGNIYKSQSKEEDKPINFSNYFTNILTVESGQVGLFCTESIKNCTNALLEKYEIYDIKNKEELDNFFNKNMNDLYPWYNKICNLTLSSSITIIDYIDMPLGSVCMSGSDCVSNYLCEVVKDDITGEIWAIRVNFFNPFK | soluble
MLKKYLISLDKDIQRRELFFSQKNTEDFQVFSAINTMQKDWDELAAIFNIEQFKAHYFRNVTKGEIGCTLSHLSVYQKIVEDNDIAEDSYALVCEDDALFHSDFQQNLTALLSEKLEAEIILLGQSKINDFNDFDLEINYPTTFSFLCKKTGDVNYAFPYKSYFAGTVGYLIKKSAARRFIQQISQNKPFWLADDFLLFEQNFNIRNKVVRPLIVIENPVLISNLESVRGSLSNNLLKKLMKYPLKKIFAIKKNLAN | soluble
MALDANDLLPPEKAFVPELAVADDGVNVRFRIADGYYMYQAKIVGKTNPADLLGQPSFSKGEEKEDEFFGRQTVYHHEAQVAFPYAKAVGEPYKLVLTYQGSAEAGVCYPPVDTEFDIFGNGTYHPQT | soluble
MDTSSSCKAFLLDSALAVKWPRDKETAPRLPQHRGWNPGDAPQTSQGRGTGTPVGAETKTLPSTDVAQPPSDSDAVGPRSGFPPQPSLPLCRAPGQLGEKQLPSSTSDDRVKDEFSDLSEGDVLSEDENDKKQNAQSSDESFEPYPERKVSGKKSESKEAKKSEEPRIRKKPGPKPGWKKKLRCEREELPTIYKCPYQGCTAVYRGADGMKKHIKEHHEEVRERPCPHPGCNKVFMIDRYLQRHVKLIHTEVRNYICDECGQTFKQRKHLLVHQMRHSGAKPLQCEVCGFQCRQRASLKYHMTKHKAETELDFACDQCGRRFEKAHNLNVHMSMVHPLTQTQDKALPLEAEPPPGPPSPSVTTEGQAVKPEPT | soluble
VPQQSATKLVQQWQPLLQRWGELAGVEIKFATARDIPTFEARLMAGEYDIAYMNPYHFTLVNQTPGYTALARAKNKRITGIIVARKGQSVTLDDLQEETIAFPAPRAFAASIITQSELEQKGIKFTPKYVGSHD | not soluble
MGSDKIHHHHHHMAPLAPLALSELGPKLDRSIDPLWISRQSLEAEPNAFKPGCGWLPNDWMPLESIRKALRSATRREDDSLLGYSSPLGLSALRDLLARRAQSKGIEANLNQVLLTDSGTQAIDLVCRFLLKPDDVVLIDDPCYFNFHALLKVHQVKVVGIPYTPNGPDLEAFKEAIESYNPRLYITNSGIHNPTGATLSLSTAHQLLKLIDQSNLIVIEDDIFSDFEYTPAPRLAALDNLSRVIFIGSFSKTLSASIRCGYIIAKPEWIDQIADLKIATSFSHNGLSAKILHTALTDGSYRKHLDLLKVRLAQAMQETIAKLKSIGIEPWIEPKAGIFVWCRLPEGVDAAKIARFCLNRQVILAPGNAFSQAQSAGQFIRFNITQSNHDYIYKTLAEALLQESLEKQV | not soluble
MGSDKIHHHHHHSQTRYFADKKVSKSKNIVAADKVTDKEKETETWTSIPQRAVAYQELTTYEDSNLTKSVGKIPAKTQLDIPEIVGKSFKLKTGKYISTDKKAVISDLTISRESINTTIYTDKSVNVFYNPVTTYDNQIMTNLSGTHQLSADKMAKTNWGTYYEVSLDNGQKGWVSENDISLENPKIKQVQALLNQKYNDKKYSIYVKELDDKFTAGVNQEQKMYSASLSKIPILYWTQKRLNEGLASLDDKLLYTPAINTFYGSYKPEGTGNLPKTADNKYYSLQDVINRTAKLSDNVGSNMLAYYETQEFNPNYQKEINRIAGQEWNPKERNASAQMVGRMLEALYNEGGASFNALFDTSFDDVKIRAGVPKNISVAHKIGGADTDNHDAAIVFASKPYLLVIETDGATDDEIKAISQDVYGVMK | not soluble
MNGNHSAPAIAIAVIDGCDGLWREVLLGIEEEGIPFRLQHHPAGEVVDSAWQAARSSPLLVGIACDRHMLVVHYKNLPASAPLFTLMHHQDSQAHRNTGNNAARLVKGIPFRDLNSEATGEQQDE | soluble
MSLKRYSGFLIDLDGTMYRGSEVITEAVAFVKQLEKQSASYLFVTNNSTKSPETVATLLKSMDVPATKEHVFTSSMAMASYLTRTKEFVRAFVIGEEGLLESLKESGMMVSEDEQPDYVVMGLDRAISYEKLAKAATYVRQGAKFFITNGDAALPTEKGLMPGNGSLAAVVATTTGVKPFVVGKPSPIIIEEALKRLGTTKEETLLIGDNYDTDILAGIHAGIDTLLVHTGVTTKEALKQKEAQPTYTCESLADWQRSIEEEGHHHHHH | soluble
MNSEQADILDLLSGHTDDTTIERLAFECLLTNMTDDRVVSLMNILGWQGDFNCFAIGGVPSASLASTSLAIRKAVRDLGGEHVVIGTYGTFLLALACQMGAVTPEVTCTAVMPAFSEDEPLYLSPVRSGVAGASHALRETMFSLQAAPALSTPSRPLRADELLPERALLGDDYAREELYRNVYQVLRGENPDDPTYLTVSTFLKYGSSLENTAKELNVHPNTVRYRLKRAAETTGWDATDPRDAYVLTTALAIGRMRDR | soluble
MAHHHHHHMKGCTLQNNFNHTAPFCGEWNSTILSGSLPPNSGGSSCVINLIKDEVHTVNGNTPRGITITSDTTKDGVFCTMDANGCPFAVDREIERGVNRMKAITKHGTCHMAYATSGGRTCDDSYDRSTRNYHDEEDEEWYEEDEEEGEDSPRIHIIDEHRDGRLLGNILCGMSRAGERISQGLDMLSPLEKRKSGRCAAIESVDYNNTRRRGGGGAETQKGLFQNYYNTGRGRWASRNHCRTNGWDESVSVESCFSHTYNQQWRGREPDYAMMEAHAALDGRSFCEGTYLSSTKLSERKKRVALSGSRVCRDAGKVIVQDNCPYDHKKRHKGRRQCQSPFGEEKIRANDPFDSPKNAITHIKKAGSAGSDDNDSCNPHSKSPGLTGSGSRCSQKETAGRSAEQRNGSGKAASPKTSPHKDELKEKESTVVKKD | not soluble
MENFAYYTPTRLIFGKGLAIITPRWMRHILNDHTLERFVKFSVDIYGLLRLRKRTFMKYLKHHCRIYEEYNRGRIFGQGVCLFIIYYKLEHHHHHH | not soluble

Source: the DeepSol protein solubility set
